# Biological target: Recombinant RbAp48 (human, UniProt Q09028 1-425)
# Experiment: ITC; MTA1 peptide (250 uM) titrated into RbAp48 (25 uM); 25 C; 20 mM Tris pH 7.5, 150 mM NaCl; single-site model
# Conditions: both partners purified
# Chain of Recombinant RbAp48 (Q09028 whole entry): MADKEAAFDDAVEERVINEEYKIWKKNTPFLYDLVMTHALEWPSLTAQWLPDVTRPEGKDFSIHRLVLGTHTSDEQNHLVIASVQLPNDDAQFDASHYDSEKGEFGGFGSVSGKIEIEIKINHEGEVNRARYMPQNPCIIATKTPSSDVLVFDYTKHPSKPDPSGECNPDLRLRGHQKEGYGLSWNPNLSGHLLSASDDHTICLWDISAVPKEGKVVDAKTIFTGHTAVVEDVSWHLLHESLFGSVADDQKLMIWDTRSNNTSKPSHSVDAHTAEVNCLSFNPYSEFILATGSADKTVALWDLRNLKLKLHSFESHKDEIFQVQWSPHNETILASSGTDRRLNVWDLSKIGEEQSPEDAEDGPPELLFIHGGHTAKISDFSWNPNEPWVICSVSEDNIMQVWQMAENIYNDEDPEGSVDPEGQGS
binder,measurement,value
"Ac-KLLSSSETKRAARRPYKPIALRQSQA-NH2 (peptide, UniProt Q13330 670-695, looked up) [MTA1-(670-695) peptide]",Kd,50 nM
same,stoichiometry N,1
"Ac-DVFYMATEETRKIRKLLSSSETKRAARRPYK-NH2 (peptide, UniProt Q13330 656-686, looked up) [MTA1-(656-686) peptide]",stoichiometry N,1
"Ac-KLLSSSETKRAARRPYKPIALRQSQALPPRPPPPAPVNDEPI-NH2 (peptide, UniProt Q13330 670-711, looked up) [MTA1-(670-711) peptide]",stoichiometry N,1

# Source: paper PMC4139204 (The Journal of Biological Chemistry, 2014)
